This experiment concerns the target VEGF (VEGF 1-165 aa, R&D Systems 293-VE-010) (UniProt P15692 27-191). In words: Direct bind ELISA, VEGF coated on plate.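 Also: ELISA screening of antibodies for binding to the plate-coated target antigen.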

From US20100260668A1 (published 2010) come the findings set out here.

Sequence of VEGF (VEGF 1-165 aa, R&D Systems 293-VE-010) (P15692 other isoform, or with tags, fused parts or gaps limits assumed): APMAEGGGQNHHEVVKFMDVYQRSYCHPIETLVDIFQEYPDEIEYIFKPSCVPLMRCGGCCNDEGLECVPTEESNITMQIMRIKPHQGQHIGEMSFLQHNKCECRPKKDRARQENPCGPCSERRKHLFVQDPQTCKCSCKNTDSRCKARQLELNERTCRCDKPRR
Procedure: Enzyme Linked Immunosorbent Assays to screen for antibodies that bind a desired target antigen were performed as follows. […] Plates were washed four times with PBS containing 0.02% Tween 20. Plates were blocked by the addition of 300 μL/well blocking solution (non-fat dry milk powder, various retail suppliers, diluted to 2% in PBS) for ½ hour at room temperature. Plates were washed four times after blocking with PBS containing 0.02% Tween 20.
Plates were washed 4 times with PBS containing 0.02% Tween 20.

B1: DVD443 (bispecific antibody, IgG1)
VH: QVQLVQSGAEVKKPGASVKISCKASGYSFTAYYIHWVKQAPGQGLEWIGYISSYNGATNYNQKFKGRVTFTTDTSTSTAYMELRSLRSDDTAVYYCARDYDYDVGMDYWGQGTLVTVSSASTKGPEVQLVESGGGLVQPGGSLRLSCAASGFTISDYWIHWVRQAPGKGLEWVAGITPAGGYTYYADSVKGRFTISADTSKNTAYLQMNSLRAEDTAVYYCARFVFFLPYAMDYWGQGTLVTVSS
VL: DIVMTQSPDSLAVSLGERATISCRASESVDNYGISFMKWFQQKPGQPPKLLIYAASNQGSGVPDRFSGSGSGTDFTLTISSLQAEDVAVYYCQQSKEVPWTFGGGTKVEIKRTVAAPDIQMTQSPSSLSASVGDRVTITCRASQDVSTAVAWYQQKPGKAPKLLIYSASFLYSGVPSRFSGSGSGTDFTLTISSLQPEDFATYYCQQSYTTPPTFGQGTKVEIKR
notes: HC linker short, LC linker short; also called DVD443H; DVD443L
The EC50 is the concentration needed to bring the measured effect to its halfway point. A lower EC50 goes with higher potency in that assay. The molecule B1 registered an EC50 of 611 nM.

B2: DVD461 (bispecific antibody, IgG1)
VH: B1 VH
VL: DIVMTQSPDSLAVSLGERATISCRASESVDNYGISFMKWFQQKPGQPPKLLIYAASNQGSGVPDRFSGSGSGTDFTLTISSLQAEDVAVYYCQQSKEVPWTFGGGTKVEIKRTVAAPSVFIFPPDIQMTQSPSSLSASVGDRVTITCRASQDVSTAVAWYQQKPGKAPKLLIYSASFLYSGVPSRFSGSGSGTDFTLTISSLQPEDFATYYCQQSYTTPPTFGQGTKVEIKR
notes: HC linker short, LC linker long; also called DVD461H; DVD461L
Turning to B2, the response was half-maximal at 10.4 nM (EC50).

B3: DVD455 (bispecific antibody, IgG1)
VH: QVQLVQSGAEVKKPGASVKISCKASGYSFTAYYIHWVKQAPGQGLEWIGYISSYNGATNYNQKFKGRVTFTTDTSTSTAYMELRSLRSDDTAVYYCARDYDYDVGMDYWGQGTLVTVSSASTKGPSVFPLAPEVQLVESGGGLVQPGGSLRLSCAASGFTISDYWIHWVRQAPGKGLEWVAGITPAGGYTYYADSVKGRFTISADTSKNTAYLQMNSLRAEDTAVYYCARFVFFLPYAMDYWGQGTLVTVSS
VL: B1 VL
notes: HC linker long, LC linker short; also called DVD455H; DVD455L
B3: the EC50 stood at 26.7 nM.

B4: DVD450 (bispecific antibody, IgG1)
VH: EVQLVESGGGLVQPGGSLRLSCAASGFTISDYWIHWVRQAPGKGLEWVAGITPAGGYTYYADSVKGRFTISADTSKNTAYLQMNSLRAEDTAVYYCARFVFFLPYAMDYWGQGTLVTVSSASTKGPSVFPLAPQVQLVQSGAEVKKPGASVKISCKASGYSFTAYYIHWVKQAPGQGLEWIGYISSYNGATNYNQKFKGRVTFTTDTSTSTAYMELRSLRSDDTAVYYCARDYDYDVGMDYWGQGTLVTVSS
VL: DIQMTQSPSSLSASVGDRVTITCRASQDVSTAVAWYQQKPGKAPKLLIYSASFLYSGVPSRFSGSGSGTDFTLTISSLQPEDFATYYCQQSYTTPPTFGQGTKVEIKRTVAAPSVFIFPPDIVMTQSPDSLAVSLGERATISCRASESVDNYGISFMKWFQQKPGQPPKLLIYAASNQGSGVPDRFSGSGSGTDFTLTISSLQAEDVAVYYCQQSKEVPWTFGGGTKVEIKR
notes: HC linker long, LC linker long; also called DVD450H; DVD450L
Take B4: it took 12.1 nM to reach a half-maximal effect (EC50).

B5: DVD449 (bispecific antibody, IgG1)
VH: B3 VH
VL: B2 VL
notes: HC linker long, LC linker long; also called DVD449H; DVD449L
As for B5, a half-maximal response (EC50) required 15.6 nM.

B6: DVD444 (bispecific antibody, IgG1)
VH: EVQLVESGGGLVQPGGSLRLSCAASGFTISDYWIHWVRQAPGKGLEWVAGITPAGGYTYYADSVKGRFTISADTSKNTAYLQMNSLRAEDTAVYYCARFVFFLPYAMDYWGQGTLVTVSSASTKGPQVQLVQSGAEVKKPGASVKISCKASGYSFTAYYIHWVKQAPGQGLEWIGYISSYNGATNYNQKFKGRVTFTTDTSTSTAYMELRSLRSDDTAVYYCARDYDYDVGMDYWGQGTLVTVSS
VL: DIQMTQSPSSLSASVGDRVTITCRASQDVSTAVAWYQQKPGKAPKLLIYSASFLYSGVPSRFSGSGSGTDFTLTISSLQPEDFATYYCQQSYTTPPTFGQGTKVEIKRTVAAPDIVMTQSPDSLAVSLGERATISCRASESVDNYGISFMKWFQQKPGQPPKLLIYAASNQGSGVPDRFSGSGSGTDFTLTISSLQAEDVAVYYCQQSKEVPWTFGGGTKVEIKR
notes: HC linker short, LC linker short; also called DVD444H; DVD444L
Molecule B6 came in with an EC50 of 2.44 nM.

B7: DVD462 (bispecific antibody, IgG1)
VH: B6 VH
VL: B4 VL
notes: HC linker short, LC linker long; also called DVD462H; DVD462L
B7 registered an EC50 of 8 nM.

B8: DVD456 (bispecific antibody, IgG1)
VH: B4 VH
VL: B6 VL
notes: HC linker long, LC linker short; also called DVD456H; DVD456L
B8 gave an EC50 of 1.63 nM.
